Earlier results, collected in article PMC9414616.

Molecular target: NTSR2 (UniProt O95665)
Chain of UniProt O95665 (O95665 whole entry): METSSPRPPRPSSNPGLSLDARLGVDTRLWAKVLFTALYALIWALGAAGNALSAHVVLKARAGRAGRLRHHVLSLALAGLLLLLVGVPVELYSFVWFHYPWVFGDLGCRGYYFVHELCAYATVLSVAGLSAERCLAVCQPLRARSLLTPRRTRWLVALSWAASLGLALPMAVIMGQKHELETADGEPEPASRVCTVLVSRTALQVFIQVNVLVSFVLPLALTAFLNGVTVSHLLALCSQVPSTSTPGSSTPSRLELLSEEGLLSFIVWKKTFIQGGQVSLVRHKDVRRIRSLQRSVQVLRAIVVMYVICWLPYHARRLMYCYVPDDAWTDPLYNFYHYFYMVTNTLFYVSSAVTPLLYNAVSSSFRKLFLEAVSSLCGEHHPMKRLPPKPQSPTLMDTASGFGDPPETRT

## neurotensin (from UniProt P30990)
  Kd: 4 nM
